In patent publication US20190071490A1 (BETH ISRAEL DEACONESS MEDICAL CENTER, published 2019):

T1: human α-CGRP 1-37 (WT) (human, C-terminal amide; N-terminal biotin when captured on the SA chip; 125I-labelled in the radioligand assay)
T1 construct: also called α-human
T1 peptide: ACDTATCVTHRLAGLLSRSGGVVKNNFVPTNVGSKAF

T2: rat α-CGRP (1-37) (rat, C-terminal amide; N-terminal biotin when captured on the SA chip)
T2 construct: also called rat α (1-37); α-rat
T2 peptide: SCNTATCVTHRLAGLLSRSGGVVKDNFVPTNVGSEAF


Assays:
human α-CGRP 1-37 (WT) = target: T1, human α-CGRP 1-37 (WT); test: Biacore, 37°C, Fab over CGRP on SA chip
Protocol: (§1) Biacore assay for affinity determination. […] All Biacore assays were conducted in HBS-EP running buffer (10 mM HEPES pH 7.4, 150 mM NaCl, 3 mM EDTA, 0.005% v/v polysorbate P20). CGRP surfaces were prepared by diluting the N-biotinylated CGRP to a concentration of less than 0.001 mg/mL into HBS-EP buffer and injecting it across the SA sensor chip using variable contact times. […] Samples were typically injected for 1 minute at 100 μL/min and dissociation times of at least 10 minutes were allowed. […] An entire titration series (typically generated in duplicate) was fit globally to a 1:1 Langmuir binding model using the BIAevaluation program. This returned a unique pair of association and dissociation kinetic rate constants (respectively, kₒₙ and koff) for each binding interaction, whose ratio gave the equilibrium dissociation constant (KD=koff/kₒₙ). […]

rat α-CGRP (1-37) = target: T2, rat α-CGRP (1-37); test: Biacore, 37°C, Fab over CGRP on SA chip
Protocol: as §1

Row | Binder | Kd (human α-CGRP 1-37 (WT)) [nM] | koff (human α-CGRP 1-37 (WT)) [s⁻¹] | Kd (rat α-CGRP (1-37)) [nM] | koff (rat α-CGRP (1-37)) [s⁻¹]
1 | G1 variant M59 Fab (Fab, V domains shown, Fab; constant domains as m1) VH: EVQLVESGGGLVQPGGSLRLSCAASGFTFSNYWISWVRQAPGKGLEWVAEIRSKSDNNATFYAEAVKGRFTISRDNAKNSLYLQMNSLRAEDTAVYYCTVYFDYGLAIQNYWGQGTLVTVSS VL: EIVLTQSPATLSLSPGERATLSCKASKNVDTYVSWYQQKPGQAPRLLIYGASNRYSGIPARFSGSGSGTDFTLTISSLEPEDFAVYYCSQSYNYPYTFGQGTKLEIK | 3.28 | 0.000524 | 683 | 0.0123
2 | G1 variant M66 Fab (Fab, V domains shown, Fab; constant domains as m1; printed L561 read as L56I) VH: EVQLVESGGGLVQPGGSLRLSCAASGFTFSNYWISWVRQAPGKGLEWVAEIRSKSDESATHYAEAVKGRFTISRDNAKNSLYLQMNSLRAEDTAVYYCTVYFDYGLAIQNYWGQGTLVTVSS VL: EIVLTQSPATLSLSPGERATLSCKASKNVGTYVSWYQQKPGQAPRLLIYGASNRYIGIPARFSGSGSGTDFTLTISSLEPEDFAVYYCSQSYNYPYTFGQGTKLEIK | 3.25 | 0.00052 | 284 | 0.00511
3 | G1 variant M67 Fab (Fab, V domains shown, Fab; constant domains as m1; printed L561 read as L56I) VH: EVQLVESGGGLVQPGGSLRLSCAASGFTFSNYWISWVRQAPGKGLEWVAEIRSKSDFSATHYAEAVKGRFTISRDNAKNSLYLQMNSLRAEDTAVYYCTVYFDYGLAIQNYWGQGTLVTVSS VL: EIVLTQSPATLSLSPGERATLSCKASKNVGTYVSWYQQKPGQAPRLLIYGASNRYIGIPARFSGSGSGTDFTLTISSLEPEDFAVYYCSQSYNYPYTFGQGTKLEIK | 5.13 | 0.00082 | 95 | 0.00171
4 | G1 variant M63 Fab (Fab, V domains shown, Fab; constant domains as m1) VH: EVQLVESGGGLVQPGGSLRLSCAASGFTFSNYWISWVRQAPGKGLEWVAEIRSKSDNTATHYAEAVKGRFTISRDNAKNSLYLQMNSLRAEDTAVYYCTVYFDYGLAIQNYWGQGTLVTVSS VL: EIVLTQSPATLSLSPGERATLSCKASKNVGTYVSWYQQKPGQAPRLLIYAASNRYLGIPARFSGSGSGTDFTLTISSLEPEDFAVYYCSQSYNYPYTFGQGTKLEIK | 9.38 | 0.0015 | 147 | 0.00265
5 | G1 variant M68 Fab (Fab, V domains shown, Fab; constant domains as m1; printed L561 read as L56I) VH: EVQLVESGGGLVQPGGSLRLSCAASGFTFSNYWISWVRQAPGKGLEWVAEIRSKSDNDATHYADAVKGRFTISRDNAKNSLYLQMNSLRAEDTAVYYCTVYFDYGLAIQNYWGQGTLVTVSS VL: EIVLTQSPATLSLSPGERATLSCKASKNVGTYVSWYQQKPGQAPRLLIYGASNRYIGIPARFSGSGSGTDFTLTISSLEPEDFAVYYCSQSYNYPYTFGQGTKLEIK | 2.68 | 0.000428 | 376 | 0.00676
6 | G1 variant M62 Fab (Fab, V domains shown, Fab; constant domains as m1) VH: EVQLVESGGGLVQPGGSLRLSCAASGFTFSNYWISWVRQAPGKGLEWVAEIRSKSDNEATHYAEAVKGRFTISRDNAKNSLYLQMNSLRAEDTAVYYCTVYFDYGLAIQNYWGQGTLVTVSS VL: EIVLTQSPATLSLSPGERATLSCKASKNVGTYVSWYQQKPGQAPRLLIYGHSNRYTGIPARFSGSGSGTDFTLTISSLEPEDFAVYYCSQSYNYPYTFGQGTKLEIK | 5.86 | 0.000557 | 242 | 0.00575
7 | G1 variant M65 Fab (Fab, V domains shown, Fab; constant domains as m1) VH: EVQLVESGGGLVQPGGSLRLSCAASGFTFSNYWISWVRQAPGKGLEWVAEIRSKSDCSATHYAEAVKGRFTISRDNAKNSLYLQMNSLRAEDTAVYYCTVYFDYGLAIQNYWGQGTLVTVSS VL: EIVLTQSPATLSLSPGERATLSCKASKNVGTYVSWYQQKPGQAPRLLIYAASNRYIGIPARFSGSGSGTDFTLTISSLEPEDFAVYYCSQSYNYPYTFGQGTKLEIK | 5.02 | 0.000803 | 226 | 0.00407
8 | G1 variant M61 Fab (Fab, V domains shown, Fab; constant domains as m1) VH: EVQLVESGGGLVQPGGSLRLSCAASGFTFSNYWISWVRQAPGKGLEWVAEIRSQSDNSATFYAEAVKGRFTISRDNAKNSLYLQMNSLRAEDTAVYYCTVYFDYGLAIQNYWGQGTLVTVSS VL: EIVLTQSPATLSLSPGERATLSCKASKNVGTYVSWYQQKPGQAPRLLIYGHSNRYLGIPARFSGSGSGTDFTLTISSLEPEDFAVYYCSQSYNYPYTFGQGTKLEIK | 2.87 | 0.000459 | 289 | 0.00521
9 | G1 variant M60 Fab (Fab, V domains shown, Fab; constant domains as m1) VH: EVQLVESGGGLVQPGGSLRLSCAASGFTFSNYWISWVRQAPGKGLEWVAEIRSKSDNRATFYAEAVKGRFTISRDNAKNSLYLQMNSLRAEDTAVYYCTVYFDYGLAIQNYWGQGTLVTVSS VL: EIVLTQSPATLSLSPGERATLSCKASKNVDTYVSWYQQKPGQAPRLLIYGASNRYSGIPARFSGSGSGTDFTLTISSLEPEDFAVYYCSQSYNYPYTFGQGTKLEIK | 5.69 | 0.000911 | 1510 | 0.0272
10 | G1 variant M69 Fab (Fab, V domains shown, Fab; constant domains as m1; printed L561 read as L56I) VH: EVQLVESGGGLVQPGGSLRLSCAASGFTFSNYWISWVRQAPGKGLEWVAEIRSKSDNEATHYAEAVKGRFTISRDNAKNSLYLQMNSLRAEDTAVYYCTVYFDYGLAIQNYWGQGTLVTVSS VL: EIVLTQSPATLSLSPGERATLSCKASKNVGTYVSWYQQKPGQAPRLLIYGASNRYIGIPARFSGSGSGTDFTLTISSLEPEDFAVYYCSQSYNYPYTFGQGTKLEIK | 4.58 | 0.000733 | 101 | 0.00181
11 | G1 variant M64 Fab (Fab, V domains shown, Fab; constant domains as m1) VH: EVQLVESGGGLVQPGGSLRLSCAASGFTFSNYWISWVRQAPGKGLEWVAEIRSKSDNVATHYAEAVKGRFTISRDNAKNSLYLQMNSLRAEDTAVYYCTVYFDYGLAIQNYWGQGTLVTVSS VL: EIVLTQSPATLSLSPGERATLSCKASKNVGTYVSWYQQKPGQAPRLLIYAASNRYLGIPARFSGSGSGTDFTLTISSLEPEDFAVYYCSQSYNYPYTFGQGTKLEIK | 8.25 | 0.00132 | 1300 | 0.0234

The next lines start with the values.

Row | Kd (human α-CGRP 1-37 (WT)) [nM] | koff (human α-CGRP 1-37 (WT)) [s⁻¹] | Kd (rat α-CGRP (1-37)) [nM] | koff (rat α-CGRP (1-37)) [s⁻¹] | Binder
12 | 3.73 | 0.000597 | 335 | 0.00603 | G1 variant M74 Fab (Fab, V domains shown, Fab; constant domains as m1) VH: EVQLVESGGGLVQPGGSLRLSCAASGFTFSNYWISWVRQAPGKGLEWVAEIRSKSDSSATHYAEAVKGRFTISRDNAKNSLYLQMNSLRAEDTAVYYCTVYFDYGLAIQNYWGQGTLVTVSS VL: EIVLTQSPATLSLSPGERATLSCKASKNVGTYVSWYQQKPGQAPRLLIYGASNRYSGIPARFSGSGSGTDFTLTISSLEPEDFAVYYCSQSYNYPYTFGQGTKLEIK
13 | 2.5 | 0.0004 | 219 | 0.00395 | G1 variant M72 Fab (Fab, V domains shown, Fab; constant domains as m1) VH: EVQLVESGGGLVQPGGSLRLSCAASGFTFSNYWISWVRQAPGKGLEWVAEIRSKSDASATHYAEAVKGRFTISRDNAKNSLYLQMNSLRAEDTAVYYCTVYFDYGLAIQNYWGQGTLVTVSS VL: EIVLTQSPATLSLSPGERATLSCKASKNVGTYVSWYQQKPGQAPRLLIYGASNRYSGIPARFSGSGSGTDFTLTISSLEPEDFAVYYCSQSYNYPYTFGQGTKLEIK
14 | 1.59 | 0.000255 | 167 | 0.003 | G1 variant M73 Fab (Fab, V domains shown, Fab; constant domains as m1) VH: EVQLVESGGGLVQPGGSLRLSCAASGFTFSNYWISWVRQAPGKGLEWVAEIRSKSDNYATHYADAVKGRFTISRDNAKNSLYLQMNSLRAEDTAVYYCTVYFDYGLAIQNYWGQGTLVTVSS VL: EIVLTQSPATLSLSPGERATLSCKASKNVGTYVSWYQQKPGQAPRLLIYGASNRYSGIPARFSGSGSGTDFTLTISSLEPEDFAVYYCSQSYNYPYTFGQGTKLEIK
15 | 3.49 | 0.000559 | 337 | 0.00607 | G1 variant M70 Fab (Fab, V domains shown, Fab; constant domains as m1; printed L561 read as L56I) VH: EVQLVESGGGLVQPGGSLRLSCAASGFTFSNYWISWVRQAPGKGLEWVAEIRSKSDSSATHYAEAVKGRFTISRDNAKNSLYLQMNSLRAEDTAVYYCTVYFDYGLAIQNYWGQGTLVTVSS VL: EIVLTQSPATLSLSPGERATLSCKASKNVGTYVSWYQQKPGQAPRLLIYGASNRYIGIPARFSGSGSGTDFTLTISSLEPEDFAVYYCSQSYNYPYTFGQGTKLEIK
16 | 8 | 0.00128 | 118 | 0.00212 | G1 variant M71 Fab (Fab, V domains shown, Fab; constant domains as m1; printed L561 read as L56I) VH: EVQLVESGGGLVQPGGSLRLSCAASGFTFSNYWISWVRQAPGKGLEWVAEIRSKSDYSATHYAEAVKGRFTISRDNAKNSLYLQMNSLRAEDTAVYYCTVYFDYGLAIQNYWGQGTLVTVSS VL: EIVLTQSPATLSLSPGERATLSCKASKNVGTYVSWYQQKPGQAPRLLIYGASNRYIGIPARFSGSGSGTDFTLTISSLEPEDFAVYYCSQSYNYPYTFGQGTKLEIK
17 | 7.25 | 0.00116 | 1040 | 0.0187 | G1 variant M75 Fab (Fab, V domains shown, Fab; constant domains as m1) VH: EVQLVESGGGLVQPGGSLRLSCAASGFTFSNYWISWVRQAPGKGLEWVAEIRSKSDVSATHYAEAVKGRFTISRDNAKNSLYLQMNSLRAEDTAVYYCTVYFDYGLAIQNYWGQGTLVTVSS VL: EIVLTQSPATLSLSPGERATLSCKASKNVGTYVSWYQQKPGQAPRLLIYGASNRYSGIPARFSGSGSGTDFTLTISSLEPEDFAVYYCSQSYNYPYTFGQGTKLEIK
